Experimental data published in publication PMC10351740, “ZCCHC3 is a stress granule zinc knuckle protein that strongly suppresses LINE-1 retrotransposition” (PLOS Genetics, 2023).

Columns and labels:
[1] = target: T1, ZCCHC3-FL (Zinc Finger CCHC-Type Containing 3 with C-terminal FLAG epitope tag) (human, UniProt Q9NUD5 1-403); experiment: co-IP; HEK 293T lysates, FLAG-tagged bait on α-FLAG-M2 antibody bound to Protein G Dynabeads, 3 h at 4°C, 5 washes; endogenous ORF1p detected with polyclonal α-L1Hs-ORF1p; bands quantified with ImageJ (IP/input compared with empty vector); details: partners not purified
T1 construct: ZCCHC3 (Zinc Finger CCHC-Type Containing 3), human; made by PCR amplification of V5-TEV-ZCCHC3 (Ultimate ORF clone IOH40787); legend calls it the 44 kD full-length ZCCHC3-FL; also called FLAG-tagged ZCCHC3; wild-type ZCCHC3-FL; source: HEK 293T, transfected, in lysate; not shown: FLAG, C-terminal, kept
T1 sequence (looked up): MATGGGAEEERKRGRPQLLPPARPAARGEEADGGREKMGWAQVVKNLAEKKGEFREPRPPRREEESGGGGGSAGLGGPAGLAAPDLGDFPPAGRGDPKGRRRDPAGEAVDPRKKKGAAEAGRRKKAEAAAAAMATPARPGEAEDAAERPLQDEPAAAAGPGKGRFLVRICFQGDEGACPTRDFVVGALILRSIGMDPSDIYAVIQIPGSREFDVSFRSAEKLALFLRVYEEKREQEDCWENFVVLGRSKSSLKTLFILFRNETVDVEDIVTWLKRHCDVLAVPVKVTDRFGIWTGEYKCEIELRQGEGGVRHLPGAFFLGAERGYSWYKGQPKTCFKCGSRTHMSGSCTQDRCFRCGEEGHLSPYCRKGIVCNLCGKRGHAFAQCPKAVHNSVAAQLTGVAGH

[2] = target: T2, ZCCHC3-FL-7AA (zinc knuckle mutant of ZCCHC3-FL) (human, UniProt Q9NUD5 1-403, C353,366,372,375A | C353,366,372,375A | C353,366,372,375A | C353,366,372,375A | …); experiment: as above; details: partners not purified
T2 construct: also called zinc-finger mutant ZCCHC3-FL-7AA; source: HEK 293T, transfected, in lysate; not shown: FLAG, C-terminal, kept
T2 sequence (looked up): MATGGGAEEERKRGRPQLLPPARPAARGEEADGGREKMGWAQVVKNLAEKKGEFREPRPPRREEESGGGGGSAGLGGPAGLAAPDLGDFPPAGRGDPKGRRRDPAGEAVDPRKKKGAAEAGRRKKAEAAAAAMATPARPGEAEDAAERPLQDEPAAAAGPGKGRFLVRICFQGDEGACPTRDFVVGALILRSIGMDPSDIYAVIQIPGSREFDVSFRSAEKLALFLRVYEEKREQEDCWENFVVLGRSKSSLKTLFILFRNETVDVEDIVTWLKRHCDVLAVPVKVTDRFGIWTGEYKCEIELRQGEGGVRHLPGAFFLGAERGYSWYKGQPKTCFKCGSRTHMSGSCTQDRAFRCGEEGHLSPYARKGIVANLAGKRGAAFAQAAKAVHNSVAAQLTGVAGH

- fold increase over empty vector controls (IP/input band intensity) [1]: 5 fold
- fold reduction against wild-type ZCCHC3-FL (band intensity) [2]: 2 fold
B1: endogenous L1 ORF1p (natural protein, human (endogenous in HEK 293T), UniProt Q9UN81 1-338, looked up)
chain: MGKKQNRKTGNSKTQSASPPPKERSSSPATEQSWMENDFDELREEGFRRSNYSELREDIQTKGKEVENFEKNLEECITRITNTEKCLKELMELKTKARELREECRSLRSRCDQLEERVSAMEDEMNEMKREGKFREKRIKRNEQSLQEIWDYVKRPNLRLIGVPESDVENGTKLENTLQDIIQENFPNLARQANVQIQEIQRTPQRYSSRRATPRHIIVRFTKVEMKEKMLRAAREKGRVTLKGKPIRLTADLSAETLQARREWGPIFNILKEKNFQPRISYPAKLSFISEGEIKYFIDKQMLRDFVTTRPALKELLKEALNMERNNRYQPLQNHAKM
notes: LINE-1 ORF1 protein, endogenous in HEK 293T cells; Endogenous ORF1p comes from many L1 loci; also called endogenous ORF1p; source: endogenous, HEK 293T lysate
